Experimental data as given in PMC5376645, “Long-acting protein drugs for the treatment of ocular diseases” (Nature Communications, 2017).

B1: NVS0, the Fab version of brolucizumab (Fab, V domains shown)
VH: EVQLVESGGGLVQPGGSLRLSCTASGFSLTDYYYMTWVRQAPGKGLEWVGFIDPDDDPYYATWAKGRFTISRDNSKNTLYLQMNSLRAEDTAVYYCAGGDHNSGWGLDIWGQGTLVTVSS
VL: EIVMTQSPSTLSASVGDRVIITCQASEIIHSWLAWYQQKPGKAPKLLIYLASTLASGVPSRFSGSGSGAEFTLTISSLQPDDFATYYCQNVYLASTNGANFGQGTKLTVL
notes: as the Fab part of the heavy chain of Dm4 (LAVA1), without the GSGGG linker and the LINK domain; as the light chain of Dm4 (LAVA1); Made by converting the anti-VEGF scFv brolucizumab to a Fab format; also called untagged anti-VEGF Fab
B2: LAVA3, protease-resistant variant of LAVA1 (Fab, V domains shown)
VH: B1 VH
VL: B1 VL
notes: as the Fab part of the heavy chain of Dm4 (LAVA1); linker; TSG6, human, LINK domain (HABP), with amino acid substitutions around the observed proteolytic sites; as the light chain of Dm4 (LAVA1); The substitutions are in Supplementary Data 2
B3: brolucizumab, an anti-VEGF scFv (scFv, V domains shown)
VH: B1 VH
VL: B1 VL
notes: NVS0 is the Fab version of this scFv
B4: LAVA1 (NVS24): NVS0 Fab with the LINK domain of human TSG6 fused to the C terminus of the heavy chain (Fab, V domains shown)
VH: B1 VH
VL: B1 VL
notes: Fab heavy chain of NVS0 (from brolucizumab); linker; TSG6 (TNF-stimulated gene 6 protein), human, LINK domain; Fab light chain of NVS0 (from brolucizumab); The LINK domain has a natural N-linked glycosylation site
B5: LAVA2, protease-resistant variant of LAVA1 (Fab, V domains shown)
VH: B1 VH
VL: B1 VL
notes: as for B2
B6: LAVA24, non-glycosylated variant of LAVA1 (Fab, V domains shown)
VH: B1 VH
VL: B1 VL
notes: as the Fab part of the heavy chain of Dm4 (LAVA1); linker; TSG6, human, LINK domain (HABP), the N-linked glycosylation site deleted by substitution of the asparagine residue; as the light chain of Dm4 (LAVA1); The substitution is in Supplementary Data 2
B7: LAVA25, non-glycosylated variant of LAVA1 (Fab, V domains shown)
VH: B1 VH
VL: B1 VL
notes: as for B6
B8: LAVA45, variant of LAVA1 with an additional disulfide bond in the LINK domain (Fab, V domains shown)
VH: B1 VH
VL: B1 VL
notes: as the Fab part of the heavy chain of Dm4 (LAVA1); linker; TSG6, human, LINK domain (HABP), with cysteine residues introduced for an additional disulfide bond and substitutions at and around the observed digestion sites; as the light chain of Dm4 (LAVA1); The substitutions are in Supplementary Data 2
B9: LAVA46, variant of LAVA1 with an additional disulfide bond in the LINK domain (Fab, V domains shown)
VH: B1 VH
VL: B1 VL
notes: as for B8

target: T1, human VEGF-A165 (VEGF homodimer with each monomer having 165 amino acid residues) (Homo sapiens, UniProt P15692-4, strain, biotin (site not stated; named for Supplementary Table 2 only)); assay: inhibition of binding of hVEGF-A165 to hVEGFR2-Fc (luminescence read-out); antibody titrated (pM); binding signal in relative luminescence units; triplicates; details: both partners purified
T1 construct: also called hVEGF-A165; hVEGF; source: bought: Peprotech (catalogue number AF-100-20)
T1 sequence (P15692 whole entry, looked up, change not shown): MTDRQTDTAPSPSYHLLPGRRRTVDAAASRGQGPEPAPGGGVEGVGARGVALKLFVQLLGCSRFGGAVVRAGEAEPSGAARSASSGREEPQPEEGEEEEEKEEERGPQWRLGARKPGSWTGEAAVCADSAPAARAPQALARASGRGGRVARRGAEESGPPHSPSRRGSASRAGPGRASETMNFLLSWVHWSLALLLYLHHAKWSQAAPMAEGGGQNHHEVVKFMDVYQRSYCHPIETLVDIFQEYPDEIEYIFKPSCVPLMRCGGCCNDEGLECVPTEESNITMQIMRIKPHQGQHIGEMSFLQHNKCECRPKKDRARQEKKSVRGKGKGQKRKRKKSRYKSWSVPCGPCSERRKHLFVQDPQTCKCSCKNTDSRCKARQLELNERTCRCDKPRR

| Binder | IC50 [nM] |
| --- | --- |
| B1 | 0.263 |
| B2 | 0.301 |
| B3 | 0.248 |
| B4 | 0.28 |
| B5 | 0.207 |

target: T1, human VEGF-A165 (VEGF homodimer with …); assay: SPR; Biacore as per the manufacturer's protocol; kinetic rate constants and affinity of the Fab constructs for biotinylated hVEGF-A165; details: both partners purified

| Binder | Kd [pM] | koff [s⁻¹] | kon [M⁻¹ s⁻¹] |
| --- | --- | --- | --- |
| B1 | 14.2 | 7.87e-05 | 5.51e+06 |
| B2 | 0.161 | 1.19e-05 | 7.39e+07 |
| B6 | 8.82 | 0.000198 | 2.25e+07 |
| B7 | 11.5 | 0.000213 | 1.86e+07 |
| B8 | 3.07 | 7.21e-05 | 2.35e+07 |
| B9 | 4.13 | 0.000257 | 6.23e+07 |
| B4 | 0.176 | 1.01e-05 | 5.75e+07 |
| B5 | 4.53 | 0.000185 | 4.1e+07 |
